Assay results from paper PMC2836930 (Biomacromolecules, 2008).
Values joined by “and” are separate entries in the source; they are usually repeats but may differ in a detail not shown here. Equal entries are not always repeated. Where two headings read alike, the source gives them in different places.

How the values were obtained:
AUC [1] = biological target: the molecule itself; assay: AUC
AUC [2] = biological target: the molecule itself; assay: AUC; remark: listed apart in the source

B1: γ_(52–88)KI (peptide)
peptide: Ac-IDFISTYITKIDKKIQSIEDIIHQIENKISEIKQLIK-NH2
- stoichiometry N (AUC [1]): ~2 and ~4
- Kd (AUC [2]): 4.95 µM
- stoichiometry N (AUC [2]): 2 and 4
